This note sets out measurements from the supplement of paper PMC9428881.

This series is described as follows: background-corrected fluorescence of 3'-dye-labeled ssDNA relative to brightest sequence (3'-GCGCG) (fraction); higher = brighter dye fluorescence (less quenching). The method, then:
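Single-stranded DNA is synthesized in situ on glass microarrays by 5'->3' photolithographic synthesis, with a Cy3 or Cy5 phosphoramidite coupled at the 3' end next to all 1024 permuted pentamers P1-P5. The construct is 5'-T5-(ACGT minus P5..P1 trinucleotides)-T15-P5P4P3P2P1-dye-3'; the dye is a 3' terminal modification, not part of the sequence. Arrays were scanned at 532 nm (Cy3) or 635 nm (Cy5), background from unlabeled oligos was subtracted, and values are averaged over 10 replicate features per array and at least 3 independent syntheses.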

± gives the standard error.

In the case of “TTTTTGCATCAGCATGCTGCTTTTTTTTTTTTTTTTGTAA [AATGT]”, the background-corrected fluorescence was determined as 0.596 ± 0.019 (dye: Cy3 (3' terminal)) and 0.478 ± 0.03 (dye: Cy5 (3' terminal)).
The corresponding values for “TTTTTGCATCATCAGCAGCATTTTTTTTTTTTTTTTGGTT” are 0.624 ± 0.019 and 0.477 ± 0.037.
In the case of “TTTTTGCATCATCAGCATCATTTTTTTTTTTTTTTTGGTG [GTGGT]”, the background-corrected fluorescence reads like this: (dye: Cy3 (3' terminal)) 0.568 ± 0.028; (dye: Cy5 (3' terminal)) 0.456 ± 0.022.
For “TTTTTGCATCATCAGCATGATTTTTTTTTTTTTTTTGGTC [CTGGT]”, in that order: 0.478 ± 0.024 and 0.387 ± 0.04.
With “TTTTTGCATCATCAGCATGCTTTTTTTTTTTTTTTTGGTA [ATGGT]”, the background-corrected fluorescence amounted to 0.609 ± 0.0091 (dye: Cy3 (3' terminal)) and 0.492 ± 0.033 (dye: Cy5 (3' terminal)).
For “TTTTTGCATCATCATCAGCATTTTTTTTTTTTTTTTGGGT”, in that order: 0.686 ± 0.028 and 0.586 ± 0.044.
On to “TTTTTGCATCATCATCATCATTTTTTTTTTTTTTTTGGGG [GGGGT]”, for which the background-corrected fluorescence was found to be 0.66 ± 0.023 (dye: Cy3 (3' terminal)) and 0.613 ± 0.042 (dye: Cy5 (3' terminal)).
For “TTTTTGCATCATCATCATGATTTTTTTTTTTTTTTTGGGC [CGGGT]”, in that order: 0.591 ± 0.026 and 0.516 ± 0.027.
In the case of “TTTTTGCATCATCATCATGCTTTTTTTTTTTTTTTTGGGA [AGGGT]”, the background-corrected fluorescence is, setting by setting: (dye: Cy3 (3' terminal)) 0.757 ± 0.01; (dye: Cy5 (3' terminal)) 0.725 ± 0.054.
For the sequence “TTTTTGCATCATCATGAGCATTTTTTTTTTTTTTTTGGCT [TCGGT]”, the background-corrected fluorescence runs as follows: (dye: Cy3 (3' terminal)) 0.549 ± 0.017; (dye: Cy5 (3' terminal)) 0.442 ± 0.053.
The corresponding values for “TTTTTGCATCATCATGATCATTTTTTTTTTTTTTTTGGCG [GCGGT]” are 0.631 ± 0.026 and 0.516 ± 0.065.
The corresponding values for “TTTTTGCATCATCATGATGATTTTTTTTTTTTTTTTGGCC [CCGGT]” are 0.46 ± 0.032 and 0.369 ± 0.03.
The corresponding values for “TTTTTGCATCATCATGATGCTTTTTTTTTTTTTTTTGGCA [ACGGT]” are 0.562 ± 0.015 and 0.472 ± 0.032.
With “TTTTTGCATCATCATGCGCATTTTTTTTTTTTTTTTGGAT [TAGGT]”, the background-corrected fluorescence is 0.617 ± 0.023 (dye: Cy3 (3' terminal)) and 0.458 ± 0.036 (dye: Cy5 (3' terminal)).
For “TTTTTGCATCATCATGCTCATTTTTTTTTTTTTTTTGGAG [GAGGT]”, in that order: 0.589 ± 0.02 and 0.494 ± 0.035.
The corresponding values for “TTTTTGCATCATCATGCTGATTTTTTTTTTTTTTTTGGAC [CAGGT]” are 0.5012 ± 0.0043 and 0.404 ± 0.046.
The corresponding values for “TTTTTGCATCATCATGCTGCTTTTTTTTTTTTTTTTGGAA [AAGGT]” are 0.653 ± 0.024 and 0.557 ± 0.029.
Regarding “TTTTTGCATCATGAGCAGCATTTTTTTTTTTTTTTTGCTT [TTCGT]”, the background-corrected fluorescence was 0.514 ± 0.029 (dye: Cy3 (3' terminal)) and 0.384 ± 0.038 (dye: Cy5 (3' terminal)).
Regarding “TTTTTGCATCATGAGCATCATTTTTTTTTTTTTTTTGCTG [GTCGT]”, the background-corrected fluorescence runs as follows: (dye: Cy3 (3' terminal)) 0.463 ± 0.018; (dye: Cy5 (3' terminal)) 0.358 ± 0.022.
The corresponding values for “TTTTTGCATCATGAGCATGATTTTTTTTTTTTTTTTGCTC [CTCGT]” are 0.374 ± 0.037 and 0.296 ± 0.036.
The corresponding values for “TTTTTGCATCATGAGCATGCTTTTTTTTTTTTTTTTGCTA [ATCGT]” are 0.55 ± 0.032 and 0.399 ± 0.041.
On to “TTTTTGCATCATGATCAGCATTTTTTTTTTTTTTTTGCGT”, for which the background-corrected fluorescence by setting is: (dye: Cy3 (3' terminal)) 0.6597 ± 0.003; (dye: Cy5 (3' terminal)) 0.516 ± 0.061.
The corresponding values for “TTTTTGCATCATGATCATCATTTTTTTTTTTTTTTTGCGG [GGCGT]” are 0.603 ± 0.016 and 0.543 ± 0.032.
The corresponding values for “TTTTTGCATCATGATCATGATTTTTTTTTTTTTTTTGCGC [CGCGT]” are 0.596 ± 0.02 and 0.48 ± 0.034.
The corresponding values for “TTTTTGCATCATGATCATGCTTTTTTTTTTTTTTTTGCGA [AGCGT]” are 0.675 ± 0.036 and 0.616 ± 0.044.
The sequence “TTTTTGCATCATGATGAGCATTTTTTTTTTTTTTTTGCCT [TCCGT]” gave a background-corrected fluorescence (dye: Cy3 (3' terminal)) of 0.444 ± 0.011 and a background-corrected fluorescence (dye: Cy5 (3' terminal)) of 0.356 ± 0.021.
For “TTTTTGCATCATGATGATCATTTTTTTTTTTTTTTTGCCG [GCCGT]”, in that order: 0.519 ± 0.027 and 0.389 ± 0.029.
For “TTTTTGCATCATGATGATGATTTTTTTTTTTTTTTTGCCC [CCCGT]”, in that order: 0.378 ± 0.032 and 0.272 ± 0.016.
The corresponding values for “TTTTTGCATCATGATGATGCTTTTTTTTTTTTTTTTGCCA [ACCGT]” are 0.519 ± 0.0069 and 0.403 ± 0.029.
Turning to “TTTTTGCATCATGATGCGCATTTTTTTTTTTTTTTTGCAT [TACGT]”, the background-corrected fluorescence runs as follows: (dye: Cy3 (3' terminal)) 0.529 ± 0.02; (dye: Cy5 (3' terminal)) 0.394 ± 0.02.
For “TTTTTGCATCATGATGCTCATTTTTTTTTTTTTTTTGCAG [GACGT]”, in that order: 0.526 ± 0.033 and 0.425 ± 0.029.
For “TTTTTGCATCATGATGCTGATTTTTTTTTTTTTTTTGCAC [CACGT]”, in that order: 0.415 ± 0.035 and 0.321 ± 0.028.
Turning to “TTTTTGCATCATGATGCTGCTTTTTTTTTTTTTTTTGCAA [AACGT]”, the background-corrected fluorescence was 0.594 ± 0.0062 (dye: Cy3 (3' terminal)) and 0.463 ± 0.026 (dye: Cy5 (3' terminal)).
For “TTTTTGCATCATGCGCAGCATTTTTTTTTTTTTTTTGATT [TTAGT]”, in that order: 0.579 ± 0.035 and 0.419 ± 0.05.
For “TTTTTGCATCATGCGCATCATTTTTTTTTTTTTTTTGATG [GTAGT]”, in that order: 0.53 ± 0.0055 and 0.409 ± 0.037.
The corresponding values for “TTTTTGCATCATGCGCATGATTTTTTTTTTTTTTTTGATC [CTAGT]” are 0.442 ± 0.024 and 0.335 ± 0.028.
For “TTTTTGCATCATGCGCATGCTTTTTTTTTTTTTTTTGATA [ATAGT]”, the background-corrected fluorescence reads like this: (dye: Cy3 (3' terminal)) 0.555 ± 0.039; (dye: Cy5 (3' terminal)) 0.481 ± 0.032.
“TTTTTGCATCATGCTCAGCATTTTTTTTTTTTTTTTGAGT”: the background-corrected fluorescence came out at 0.659 ± 0.023 (dye: Cy3 (3' terminal)) and 0.539 ± 0.029 (dye: Cy5 (3' terminal)).
The corresponding values for “TTTTTGCATCATGCTCATCATTTTTTTTTTTTTTTTGAGG [GGAGT]” are 0.67 ± 0.013 and 0.529 ± 0.043.
Take “TTTTTGCATCATGCTCATGATTTTTTTTTTTTTTTTGAGC [CGAGT]”: the background-corrected fluorescence reads like this: (dye: Cy3 (3' terminal)) 0.556 ± 0.024; (dye: Cy5 (3' terminal)) 0.422 ± 0.08.
For “TTTTTGCATCATGCTCATGCTTTTTTTTTTTTTTTTGAGA [AGAGT]”, in that order: 0.679 ± 0.038 and 0.593 ± 0.044.
With “TTTTTGCATCATGCTGAGCATTTTTTTTTTTTTTTTGACT [TCAGT]”, the background-corrected fluorescence (dye: Cy3 (3' terminal)) came to 0.473 ± 0.034 and the background-corrected fluorescence (dye: Cy5 (3' terminal)) was found to be 0.357 ± 0.022.
The corresponding values for “TTTTTGCATCATGCTGATCATTTTTTTTTTTTTTTTGACG [GCAGT]” are 0.536 ± 0.016 and 0.433 ± 0.063.
For “TTTTTGCATCATGCTGATGATTTTTTTTTTTTTTTTGACC [CCAGT]”, in that order: 0.418 ± 0.027 and 0.3 ± 0.02.
“TTTTTGCATCATGCTGATGCTTTTTTTTTTTTTTTTGACA [ACAGT]”: the background-corrected fluorescence turned out to be 0.527 ± 0.019 (dye: Cy3 (3' terminal)) and 0.411 ± 0.026 (dye: Cy5 (3' terminal)).
The corresponding values for “TTTTTGCATCATGCTGCGCATTTTTTTTTTTTTTTTGAAT [TAAGT]” are 0.558 ± 0.032 and 0.436 ± 0.035.
For “TTTTTGCATCATGCTGCTCATTTTTTTTTTTTTTTTGAAG [GAAGT]”, in that order: 0.564 ± 0.02 and 0.44 ± 0.024.
The corresponding values for “TTTTTGCATCATGCTGCTGATTTTTTTTTTTTTTTTGAAC [CAAGT]” are 0.461 ± 0.024 and 0.345 ± 0.021.
In the case of “TTTTTGCATCATGCTGCTGCTTTTTTTTTTTTTTTTGAAA [AAAGT]”, the background-corrected fluorescence was 0.603 ± 0.021 (dye: Cy3 (3' terminal)) and 0.522 ± 0.041 (dye: Cy5 (3' terminal)).
For “TTTTTGCATGAGCAGCAGCATTTTTTTTTTTTTTTTCTTT”, in that order: 0.504 ± 0.016 and 0.353 ± 0.032.
For “TTTTTGCATGAGCAGCATCATTTTTTTTTTTTTTTTCTTG [GTTCT]”, in that order: 0.489 ± 0.023 and 0.371 ± 0.032.
For “TTTTTGCATGAGCAGCATGATTTTTTTTTTTTTTTTCTTC [CTTCT]”, in that order: 0.382 ± 0.043 and 0.282 ± 0.018.
With “TTTTTGCATGAGCAGCATGCTTTTTTTTTTTTTTTTCTTA [ATTCT]”, the background-corrected fluorescence runs as follows: (dye: Cy3 (3' terminal)) 0.5004 ± 0.0042; (dye: Cy5 (3' terminal)) 0.373 ± 0.022.
For “TTTTTGCATGAGCATCAGCATTTTTTTTTTTTTTTTCTGT [TGTCT]”, in that order: 0.594 ± 0.015 and 0.433 ± 0.02.
For “TTTTTGCATGAGCATCATCATTTTTTTTTTTTTTTTCTGG [GGTCT]”, in that order: 0.563 ± 0.024 and 0.43 ± 0.035.
